Measurements as given in patent US20190100588A1 (VISTERRA, published 2019).

T1: cell surface CD138 (human CD138) (human, UniProt P18827 23-310)
T1 construct: whole, on cells; also called membrane CD138
T1 sequence (looked up): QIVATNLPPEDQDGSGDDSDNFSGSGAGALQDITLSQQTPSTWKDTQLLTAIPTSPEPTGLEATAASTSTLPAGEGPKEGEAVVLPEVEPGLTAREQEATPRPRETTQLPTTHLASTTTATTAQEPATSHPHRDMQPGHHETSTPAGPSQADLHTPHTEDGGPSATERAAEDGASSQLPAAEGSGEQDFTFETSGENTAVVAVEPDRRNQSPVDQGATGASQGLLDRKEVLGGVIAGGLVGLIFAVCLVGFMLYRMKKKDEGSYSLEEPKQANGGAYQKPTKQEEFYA

T2: rCD138 (recombinant CD138) (human, UniProt P18827 23-254, limits assumed)
T2 sequence (looked up): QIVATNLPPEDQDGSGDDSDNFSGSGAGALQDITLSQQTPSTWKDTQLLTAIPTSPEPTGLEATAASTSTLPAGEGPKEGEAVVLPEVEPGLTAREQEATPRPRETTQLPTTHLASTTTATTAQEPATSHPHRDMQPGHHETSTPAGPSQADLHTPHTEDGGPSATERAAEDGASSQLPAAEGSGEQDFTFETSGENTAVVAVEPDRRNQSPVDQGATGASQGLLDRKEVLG

T3: Pep4 (human)
T3 construct: also called Peptide 4
T3 peptide: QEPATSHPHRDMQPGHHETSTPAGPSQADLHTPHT

T4: Pep5 (human)
T4 construct: also called Peptide 5
T4 peptide: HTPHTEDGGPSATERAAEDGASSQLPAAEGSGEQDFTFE

T5: Pep6 (human)
T5 construct: also called Peptide 6; Peptide-6
T5 peptide: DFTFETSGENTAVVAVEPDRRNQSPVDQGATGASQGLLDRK

T6: Pep3 (human)
T6 construct: also called Peptide 3
T6 peptide: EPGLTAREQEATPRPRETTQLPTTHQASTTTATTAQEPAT

T7: recombinant CD138 extracellular domain (soluble CD138) (human, UniProt P18827 23-250)
T7 construct: also called soluble CD138 extracellular domain; biotinylated CD138
T7 sequence: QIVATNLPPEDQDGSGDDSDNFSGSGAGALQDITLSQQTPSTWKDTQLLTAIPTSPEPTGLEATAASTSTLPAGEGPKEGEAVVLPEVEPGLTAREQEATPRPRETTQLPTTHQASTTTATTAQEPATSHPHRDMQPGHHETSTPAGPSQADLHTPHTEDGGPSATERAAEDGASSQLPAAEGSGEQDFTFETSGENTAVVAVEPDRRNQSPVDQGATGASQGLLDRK

T8: Peptide 2a (human)
T8 construct: also called Pep2a
T8 peptide: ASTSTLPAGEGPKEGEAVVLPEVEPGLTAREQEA


Key:
[1] = biological target: T1, cell surface CD138 (human CD138); assay: flow cytometry, RPMI 8226 cells
Protocol: (§1) Binding of anti-CD138 antibodies to CD138 was tested by flow cytometry binding assay. Multiple myeloma cell lines RPMI 8226 (ATCC) and U266 (ATCC) were grown in RPMI1640 with 10% FBS. On the day of experiment, 0.25×10⁶ cells were washed with FACS buffer (PBS+0.5% BSA) and incubated with dilution series of anti-CD138 antibodies (starting 10 ug/ml) or hybridoma supernatants (starting with undiluted supernatant) for 30 min at 4° C. followed by incubation with goat-anti-human/mouse conjugated APC antibodies (BioLegend) for 30 min at 4° C. Fluorescence was detected using flow cytometer.

[2] = biological target: T1, cell surface CD138 (human CD138); assay: flow cytometry, U266 cells
Protocol: as §1

[3] = biological target: T2, rCD138 (recombinant CD138); assay: ELISA, coated rCD138
Pep4 = biological target: T3, Pep4; assay: ELISA, coated peptide
Pep5 = biological target: T4, Pep5; assay: ELISA, coated peptide
Pep6 [4] = biological target: T5, Pep6; assay: ELISA, coated peptide
Pep3 = biological target: T6, Pep3; assay: ELISA, coated peptide
[5] = biological target: T7, recombinant CD138 extracellular domain …; assay: ELISA (FIG. 18A)
Peptide 2a [6] = biological target: T8, Peptide 2a; assay: ELISA (FIG. 18B)
[7] = biological target: T1, cell surface CD138 (human CD138); assay: flow cytometry, U266 cells, afucosylated antibody
Protocol: as §1
The afucosylated antibody variants were then tested for capacity to induce ADCC, as described above.

Pep6 [8] = biological target: T5, Pep6; assay: ELISA (FIG. 18C)
[9] = biological target: T1, cell surface CD138 (human CD138); assay: form of CD138 not named
Pep6 [10] = biological target: T5, Pep6; assay: peptide binding ELISA
Protocol: (§2) As above, the monoclonal antibodies were tested for binding to a series of CD138 peptides in four-fold serial dilutions starting at 1 μg/mL. […] HRP-conjugated anti-human IgG-Fc antibody (1:5000 dilution) was used for detection. Antibody B-B4 was also tested as a reference. […] Reference antibody B-B4 only bound to Peptide 2a.

Peptide 2a [11] = biological target: T8, Peptide 2a; assay: peptide binding ELISA
Protocol: as §2

| Binder | % cells Positive [1] [%] | % cells Positive [2] [%] | ELISA O.D. [3] [O.D.] | ELISA O.D. (Pep4) [O.D.] | ELISA O.D. (Pep5) [O.D.] | ELISA O.D. (Pep6 [4]) [O.D.] | ELISA O.D. (Pep3) [O.D.] | also measured |
| --- | --- | --- | --- | --- | --- | --- | --- | --- |
| antibody 619 (antibody, V domains shown, Mouse hybridoma-derived anti-CD138 antibody) VH: QIQLVQSGPELKKPGETVKISCKASGYTFTTYGMSWVKQAPGKGLKWMGWINTYSGVPTYADDFKGRFAFSLETSASTAYLQINNLKNEDTATYFCAREGSTMVTRYYFDYWGQGTTLTVSS VL: DIVMTQAAPSVPVTPGESVSISCRSSKSLLHSNGNTYLYWFLQRPGQSPQVLIYRMSNLASGVPDRFSGSGSGTAFTLRISRVEAEDVGVYYCMQHLESPYTFGGGTKLEIK | 85 | 3.7 | 0.882 | 0.066 | 0.066 | 1.37 | 0.067 |  |
| antibody 616 (antibody, V domains shown, Mouse hybridoma-derived anti-CD138 antibody) VH: QIHLVQSGPELKKPGETVRISCKASGYTFTTYGMSWVKQAPGKALKWMGWINTYSGVPTYADDFKGRFAFSLETSASTAYLQINNLKNEDTATYFCTREGSTMVTRYYFDYWGQGTTLTVSS VL: DIVMTQAAPSVPVTPGESVSISCRSSKSLLHSNGNTYLYWFLQRPGQSPQLLIYRMSNLASGVPDRFSGSGSGTAFTLRISRVEAEDVGVYHCMQHLESPYTFGGGTTLEIK | 18.3 | 6.1 | 1.18 | 0.065 | 0.061 | 1.62 | 0.063 |  |
| antibody 623 (antibody, V domains shown, Mouse hybridoma-derived anti-CD138 antibody) VH: QIQLVQSGPELKKPGETVKISCKASGYTFTTYGMSWVKQAPGKGLKWMGWINTYSGVPTYADDFKGRFAFSLETSASTAYLQINNLKNEDTATFFCAREGSTMVTRYYFDYWGQGTTLTVSS VL: DIVMTQAAPSVPVTPGESVSISCRSSKSLLHSNGNTYLYWFLQRPGQSPQLLIYRMSNLASGVPDRFSGSGSGTAFTLRISRVEAEDVGVYYCMQHLEYPSTFGGGTKLEIK | 63.8 | 7 | 0.803 | 0.082 | 0.08 | 1.67 | 0.086 |  |
| antibody 2510 (antibody, human IgG1, V domains shown) VH: QVQLHQPGTSLVKPGASVKLSCKASGYNFSSYYMHWVKQRPGQGLEWIGTIHPSDSTTNYNQKFKGKATLTVDKSSRTAYMQLNSLTFEDSAVYYCANFVYWGQGTSVTVSS VL: DIVITQDELSNPVTSGDSVSISCRSSKSLLYKDGKTYLNWFLQRPGQSPQLLIYVVSTRASGVSDRFSGSGSGTDFTLEISRVKAEDVGVYYCQQLVEYPYTFGGGTKLEIK |  |  |  |  |  |  |  | binding result [5]: binds; binding result (Peptide 2a [6]): binds; binding result [7]: binds; binding result (Pep6 [8]): binds |
| antibody 2910 (antibody, V domains shown) VH: QVQLHQPGTSLVKPGASVKLSCKASGYTFSSYYMHWVKQRPGQGLEWIGTIHPSDSTTNYNQKFKGKATLTVDKSSRTAYMQLNSLTFEDSAVYYCANFVYWGQGTSVTVSS VL: DIVITQDELSNPVTSGDSVSISCRSSKSLLYKDGKTYLNWFLQRPGQSPQLLIYVVSTRASGVSDRFSGSGSGTDFTLEISRVKAEDVGVYYCQQLVEYPYTFGGGTKLEIK |  |  |  |  |  |  |  | binding result [7]: binds |
| antibody 2710 (antibody, V domains shown) VH: QVQLHQPGTSLVKPGASVKLSCKASGYTFSSYYMHWVKQRPGQGLEWIGTIHPSDSTTNCNQKFKGKATLTVDKSSRTAYMQLNSLTFEDSAVYYCANFVYWGQGTSVTVSS VL: DIVITQDELSNPVTSGDSVSISCRSSKSLLYKDGKTYLNWFLQRPGQSPQLLIYVVSTRASGVSDRFSGSGSGTDFTLEISRVKAEDVGVYYCQQLVEYPYTFGGGTKLEIK |  |  |  |  |  |  |  | binding result [9]: binds |
| antibody 2610 (antibody, V domains shown) VH: QVQLHQPGTSLVKPGASVKLSCKASGYSFSSYYMHWVKQRPGQGLEWIGTIHPSDSTTNCNQKFKGKATLTVDKSSRTAYMQLNSLTFEDSAVYYCANFVYWGQGTSVTVSS VL: DIVITQDELSNPVTSGDSVSISCRSSKSLLYKDGKTYLNWFLQRPGQSPQLLIYVVSTRASGVSDRFSGSGSGTDFTLEISRVKAEDVGVYYCQQLVEYPYTFGGGTKLEIK |  |  |  |  |  |  |  | binding result [5]: binds; binding result (Peptide 2a [6]): binds; binding result (Pep6 [8]): binds; binding result [9]: binds |
| antibody 604 (antibody, V domains shown, Mouse hybridoma-derived anti-CD138 antibody) VH: QVQLQQPGAELVKPGASVKVSCKASGYNFINYWMHWVKQRPGQGLEWIGRIHPSDSYTNYNQKFKGKATLTVDKSSSTAYMQLSSLTSEDSAVYYCASPISTLYWGQGTTLTVSS VL: not shown | 82.5 | 96 | 0.61 | 0.058 | 0.067 | 0.939 | 0.058 |  |
| antibody 617 (antibody, V domains shown, Mouse hybridoma-derived anti-CD138 antibody) VH: QVQLQLPGAELVKPGASVKVSCKASAYTFTSYWMHWVKQRPGQGLEWIGRIHPSDSDTNYNQNFKGKATLTVDKSSNTAYMQLSSLTSEDSAVYYCATGFSFWGQGTLVTVSA VL: DIVMTQSHKFMSTSVGDRVSITCKASQDVSTTVAWYQQKPGQSPKLLIYSASYRYTGVPDRFTGSGSGTDFTFTISSVQAEDLAVYYCQQHYSTRPTFGGGTKLEIK |  |  |  | 0.091 | 0.066 | 0.809 |  |  |
| antibody 603 (antibody, V domains shown, Mouse hybridoma-derived anti-CD138 antibody) VH: QVQVQVPGAELVKPGASVKVSCKASGYTFTSYWMHWMKKRPGQGLEWIGRIHPSDSDTNYNQNFKGKATLTVDKSSSTAYMQLSSLTSEDSAVYFCATGFSFWGQGTLVTVSA VL: not shown | 81.4 | 95.8 | 0.585 | 0.051 | 0.053 | 0.863 | 0.047 |  |
| antibody 624 (antibody, V domains shown, Mouse hybridoma-derived; afucosylated form used for ADCC) VH: QVQVQLPGAELVKPGASVKVSCKASGYTFTSYWMHWVKKRPGQGLEWIGRIHPSDSDTNYNQNFKGKATLTVDKSSSTAYMQLTSLTSEDFAVYYCSTGFSFWGQGTLVTVSA VL: not shown | 89.3 | 96.7 | 1.52 | 0.069 | 0.066 | 1.68 | 0.069 |  |
| antibody 1409 (antibody, human IgG1, V domains shown, Chimeric monoclonal antibody, murine variable regions and human IgG1) VH: EVQLVESGGGLVQPKGSLKLSCAASGFTFNTYAMHWVRQAPGKGLEWVARIRSKSSNYATYYADSVKDRFTISRDDSQSMLYLQMNNLKTEDTAMYYCVRELRLRYAMDYWGQGTSVTVSS VL: DILMTQTPLTLSVTIGQPASISCKSSQSLLYTNGKTYLNWLLQRPGQSPKRLIYLVSKLDSGVPDRFSGSGSGTDFTLKISRVEAEDLGVYYCLQSTHFPLTFGAGTKLELK |  |  |  |  |  |  |  | binding result (Pep6 [10]): binds; binding result (Peptide 2a [11]): binds |
